We go through 3 molecules from article PMC8876323, “Heat Shock Transcription Factor CgHSF1 Is Required for Melanin Biosynthesis, Appressorium Formation, and Pathogenicity in Colletotrichum gloeosporioides”.

T1: CgHSF1 (Colletotrichum gloeosporioides)
T1 chain: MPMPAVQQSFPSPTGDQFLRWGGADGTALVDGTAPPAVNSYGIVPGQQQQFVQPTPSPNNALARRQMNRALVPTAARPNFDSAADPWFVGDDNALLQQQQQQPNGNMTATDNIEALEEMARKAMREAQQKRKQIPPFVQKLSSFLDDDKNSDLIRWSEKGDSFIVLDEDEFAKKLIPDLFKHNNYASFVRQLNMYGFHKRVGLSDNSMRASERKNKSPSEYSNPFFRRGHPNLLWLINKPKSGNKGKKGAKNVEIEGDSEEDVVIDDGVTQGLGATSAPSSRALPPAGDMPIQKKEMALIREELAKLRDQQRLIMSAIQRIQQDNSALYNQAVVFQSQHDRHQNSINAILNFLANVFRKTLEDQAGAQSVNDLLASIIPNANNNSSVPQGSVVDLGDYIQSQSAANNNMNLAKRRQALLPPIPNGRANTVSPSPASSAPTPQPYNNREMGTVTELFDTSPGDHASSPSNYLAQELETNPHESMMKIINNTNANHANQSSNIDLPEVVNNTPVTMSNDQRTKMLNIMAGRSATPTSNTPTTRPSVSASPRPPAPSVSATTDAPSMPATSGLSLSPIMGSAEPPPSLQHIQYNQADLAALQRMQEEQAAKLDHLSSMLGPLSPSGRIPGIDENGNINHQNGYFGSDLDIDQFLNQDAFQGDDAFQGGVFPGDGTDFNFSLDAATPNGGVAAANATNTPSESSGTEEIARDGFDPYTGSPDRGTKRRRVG

B1: YG-probe (dsDNA)
DNA 1: TGTGGTGGTTTGAGAACATTCACTCAAAGCTCAC
DNA 2: GTGAGCTTTGAGTGAATGTTCTCAAACCACCACA
B2: CMR1-probe (dsDNA)
DNA 1: CGTATCACTTGTTCGAATTTCTCACACATTCGGT
DNA 2: ACCGAATGTGTGAGAAATTCGAACAAGTGATACG
B3: T4HRa-probe (dsDNA)
DNA 1: CGAGTAAGGCACGCGAAGTTCAGGAGAGAGACCT
DNA 2: AGGTCTCTCTCCTGAACTTCGCGTGCCTTACTCG

For this data set, the target named is T1, CgHSF1. Put plainly: EMSA. The conditions noted are these: protein: recombinant; tags: His (Ni-NTA purified, pCOLD vector); blunt. Background: Mobility shift assays separate free from complexed probe on a gel.
On to B1, for which the binding result was “binds”.

Take B2: the binding result is reported as “binds”. In the case of B3, the binding result is “binds”.
